In patent US20140241987A1:

Columns and labels:
[1] = molecular target: α-synuclein fibrils (human) (UniProt P37840); assay: inhibition ELISA, fibrils against monomers
[2] = molecular target: α-synuclein fibrils (human) (UniProt P37840); assay: SPR, BIAcore X100, fibrils immobilised on CM5, mAb injected

| Fold Affinity to Fibrils [1] [fold] | Kd [2] [nM] | koff [2] [s⁻¹] | kon [2] [M⁻¹ s⁻¹] | Substance |
| --- | --- | --- | --- | --- |
| 12700 | 0.016 | 9.36e-05 | 5.86e+06 | Syn-O1 (antibody) |
| 27300 | 0.0969 | 0.00127 | 1.31e+07 | Syn-O2 (antibody) |
| 11100 | 0.171 | 0.000379 | 2.22e+06 | Syn-O3 (antibody) |
| 6930 | 0.138 | 0.000996 | 7.24e+06 | Syn-O4 (antibody) |
